Test [1] has as its target NKp46 receptor (human) (UniProt O76036). As to the kind of experiment: cell-based or functional assay.
The target in test [2] is human NKp30 receptor (human). As to the kind of experiment: cell-based or functional assay.

Where only a bound is given, the exact number is not on record here.

Sequence of human NKp30 receptor (human) (chain, as listed by the source limits assumed): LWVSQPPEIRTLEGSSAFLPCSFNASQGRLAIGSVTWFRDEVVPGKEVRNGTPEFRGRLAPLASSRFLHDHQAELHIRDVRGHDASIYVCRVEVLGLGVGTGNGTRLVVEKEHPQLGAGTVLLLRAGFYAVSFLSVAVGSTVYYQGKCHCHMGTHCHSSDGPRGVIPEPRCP
Sequence of UniProt O76036 (O76036 22-304): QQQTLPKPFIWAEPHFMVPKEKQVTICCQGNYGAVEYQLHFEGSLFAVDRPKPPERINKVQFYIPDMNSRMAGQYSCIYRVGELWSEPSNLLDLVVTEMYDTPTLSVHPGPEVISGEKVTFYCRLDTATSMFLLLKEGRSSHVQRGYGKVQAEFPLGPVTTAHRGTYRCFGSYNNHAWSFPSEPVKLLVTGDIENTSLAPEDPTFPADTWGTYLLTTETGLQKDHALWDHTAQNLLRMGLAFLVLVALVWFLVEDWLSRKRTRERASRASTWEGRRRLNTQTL

Bab281 (anti-NKp46) monoclonal antibody: in test [1], the cells remaining with fluorescence intensity equivalent to resting cells (no division), CFSE, day 6 is 11%.

AZ20 (anti-NKp30) monoclonal antibody: in test [2], the cells in the culture at day 6 that underwent more than 5 divisions (CFSE) is over 80%; the cells remaining with fluorescence intensity equivalent to resting cells (no division), CFSE, day 6 was 5%; the dose to obtain 50% of maximum effect (NK cell proliferation from PBMC, titration of antibody with IL-2 and IL-15, 3 donors) was under 0.1 µg/mL; the plateau of the antibody's effect on NK cell proliferation (titration with IL-2 and IL-15, 3 donors) was 1 µg/mL.
